From publication PMC4686854 (2015)
Each block holds one binder with its values, some of them ahead of it.

Assays:
[1] = molecular target: T1, mouse SAD-A KD-UBA fragment (kinase domain and UBA domain) (mouse); assay: apparent Ki from trans-inhibition of KD-UBA kinase activity; residual activity a=0.34
T1 chain: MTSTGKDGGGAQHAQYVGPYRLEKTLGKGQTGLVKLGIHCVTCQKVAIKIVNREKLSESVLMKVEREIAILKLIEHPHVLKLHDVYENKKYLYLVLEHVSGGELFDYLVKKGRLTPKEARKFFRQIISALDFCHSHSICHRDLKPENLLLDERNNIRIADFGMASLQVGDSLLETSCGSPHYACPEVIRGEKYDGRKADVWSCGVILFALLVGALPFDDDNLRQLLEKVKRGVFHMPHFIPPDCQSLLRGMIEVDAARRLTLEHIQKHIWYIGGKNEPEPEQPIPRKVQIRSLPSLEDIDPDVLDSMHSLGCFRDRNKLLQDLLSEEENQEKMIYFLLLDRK

[2] = molecular target: T1, mouse SAD-A KD-UBA fragment (kinase …); assay: apparent Ki from trans-inhibition of KD-UBA kinase activity; residual activity a=0.19
[3] = molecular target: T2, mouse SAD-A KD-UBA fragment (kinase domain and UBA domain) (mouse)
T2 sequence (Q69Z98 whole entry, looked up): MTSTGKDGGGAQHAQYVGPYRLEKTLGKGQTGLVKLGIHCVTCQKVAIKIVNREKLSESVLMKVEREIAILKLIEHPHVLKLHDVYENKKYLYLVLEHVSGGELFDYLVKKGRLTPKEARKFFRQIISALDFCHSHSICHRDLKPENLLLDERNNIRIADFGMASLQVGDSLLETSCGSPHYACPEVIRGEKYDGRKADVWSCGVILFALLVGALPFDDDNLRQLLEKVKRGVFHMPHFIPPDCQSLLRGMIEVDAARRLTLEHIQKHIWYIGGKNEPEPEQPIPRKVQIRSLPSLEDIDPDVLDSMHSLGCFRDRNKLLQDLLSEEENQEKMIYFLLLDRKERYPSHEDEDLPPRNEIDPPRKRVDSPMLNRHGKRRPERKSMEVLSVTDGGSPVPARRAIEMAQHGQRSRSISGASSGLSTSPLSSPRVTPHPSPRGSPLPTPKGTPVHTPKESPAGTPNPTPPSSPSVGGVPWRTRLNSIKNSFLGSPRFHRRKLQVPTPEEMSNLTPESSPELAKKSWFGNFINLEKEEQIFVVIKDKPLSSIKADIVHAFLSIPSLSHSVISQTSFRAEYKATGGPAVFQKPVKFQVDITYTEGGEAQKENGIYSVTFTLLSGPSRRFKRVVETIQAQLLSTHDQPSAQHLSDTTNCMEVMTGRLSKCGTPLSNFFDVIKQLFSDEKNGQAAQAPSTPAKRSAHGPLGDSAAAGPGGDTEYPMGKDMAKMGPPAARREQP

[4] = molecular target: T1, mouse SAD-A KD-UBA fragment (kinase …); assay: trans-inhibition of KD-UBA kinase activity, non-competitive fit (a = 0.15)
[5] = molecular target: T1, mouse SAD-A KD-UBA fragment (kinase …); assay: trans-inhibition of KD-UBA kinase activity, non-competitive fit (a = 0.19)
[6] = molecular target: T1, mouse SAD-A KD-UBA fragment (kinase …); assay: apparent Ki from trans-inhibition of KD-UBA kinase activity; fragment 506-653; residual activity a=0.14

Ki [2]: 15.1 µM
Binder: MSNLTPESSPELAKKSWFGNFINLE [AIS-containing peptide of mouse SAD-A (residues 506-530)]

Ki [6]: 5.82 µM
trans-inhibition of the kinase activity of KD-UBA (10 nM) towards Cdc25C peptide; residual activity at the plateau [3]: 15%
B2: mouse SAD-A C-terminal fragment containing the sequence N terminal to KA1 (506-530) (domain or fragment)
chain: MSNLTPESSPELAKKSWFGNFINLEKEEQIFVVIKDKPLSSIKADIVHAFLSIPSLSHSVISQTSFRAEYKATGGPAVFQKPVKFQVDITYTEGGEAQKENGIYSVTFTLLSGPSRRFKRVVETIQAQLLSTHDQPSAQHLSGIIPKS
modifications: No chemistry outside the sequence. Built as residues 506-653 of the 653-residue isoform: the N-terminal limit 506 comes from the printed 506-530 segment, and the C-terminal limit 653 is inferred from the protein end, as in the 519-653 and 530-653 fragments. In 4YOM entity 2, position 2 = K519, 14 = K531 and 136 = S653; the initiator Met and the LEHHHHHH tag are left out.

The remaining lines, values behind:

Binder: KKSWFGNFINLE [AIS peptide of mouse SAD-A (residues 519-530)]
Ki [1]: 24.8 µM

Binder: MSNLTPESSPELAKKSWFGNFINLE (domain or fragment) [chimeric protein: mouse SAD-A residues 506-530 fused to a C-terminal thioredoxin-tag]
trans-inhibition of the kinase activity of KD-UBA (10 nM) towards Cdc25C peptide; residual activity at the plateau [3]: 15%
Ki [4]: 7.58 µM

B1: mouse SAD-A AIS-KA1 fragment (residues 519-653) (domain or fragment)
chain: KKSWFGNFINLEKEEQIFVVIKDKPLSSIKADIVHAFLSIPSLSHSVISQTSFRAEYKATGGPAVFQKPVKFQVDITYTEGGEAQKENGIYSVTFTLLSGPSRRFKRVVETIQAQLLSTHDQPSAQHLSGIIPKS
Ki [5]: 5.85 µM
